Reference: the supplement of paper PMC9112550, “Optimization of the antimicrobial peptide Bac7 by deep mutational scanning” (BMC Biology, 2022)

System: Escherichia coli TOP10
Test: shrunken log2 fold change of peptide-encoding DNA abundance (4.5 h post-induction vs induction); higher = less antimicrobial activity (less host growth inhibition)
Conditions: time post-induction: 4.5 h; library: site-saturation at positions 5, 18, 19, 20
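Note: peptides expressed intracellularly from a pBAD plasmid library in pooled LB shake-flask culture, induced with 0.3% L-arabinose, DNA abundance read by NGS, three biological replicates, DESeq2 with apeglm shrinkage.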

Sequence | shrunken log2 fold change
RRIRMRPPRLPRPRPRPCPCPRP | 0.495
RRIRMRPPRLPRPRPRPCPYPRP | -0.126
RRIRMRPPRLPRPRPRPCQLPRP | -0.00804
RRIRMRPPRLPRPRPRPCQTPRP | 0.0245
RRIRMRPPRLPRPRPRPCRLPRP | 0.0956
RRIRMRPPRLPRPRPRPCRRPRP | 0.0172
RRIRMRPPRLPRPRPRPCSSPRP | -0.0756
RRIRMRPPRLPRPRPRPCTMPRP | -0.218
RRIRMRPPRLPRPRPRPCVDPRP | 0.0636
RRIRMRPPRLPRPRPRPCWAPRP | 0.168
RRIRMRPPRLPRPRPRPCWIPRP | -0.351
RRIRMRPPRLPRPRPRPCWYPRP | 0.092
RRIRMRPPRLPRPRPRPCYYPRP | -0.199
RRIRMRPPRLPRPRPRPDAPPRP | 3.16
RRIRMRPPRLPRPRPRPDCAPRP | 1.95
RRIRMRPPRLPRPRPRPDCQPRP | 1.37
RRIRMRPPRLPRPRPRPDDAPRP | 0.225
RRIRMRPPRLPRPRPRPDDEPRP | 0.123
RRIRMRPPRLPRPRPRPDGYPRP | 0.818
RRIRMRPPRLPRPRPRPDHDPRP | -0.0765
RRIRMRPPRLPRPRPRPDHLPRP | -0.0674
RRIRMRPPRLPRPRPRPDHTPRP | 0.329
RRIRMRPPRLPRPRPRPDKEPRP | -0.01
RRIRMRPPRLPRPRPRPDKHPRP | 0.253
RRIRMRPPRLPRPRPRPDLLPRP | 2.73

Sequence | shrunken log2 fold change
RRIRMRPPRLPRPRPRPDMWPRP | 0.805
RRIRMRPPRLPRPRPRPDPEPRP | 0.769
RRIRMRPPRLPRPRPRPDPLPRP | 0.255
RRIRMRPPRLPRPRPRPDPMPRP | 0.501
RRIRMRPPRLPRPRPRPDQKPRP | -0.0396
RRIRMRPPRLPRPRPRPDRGPRP | 0.367
RRIRMRPPRLPRPRPRPDRWPRP | 0.926
RRIRMRPPRLPRPRPRPDSCPRP | -0.00101
RRIRMRPPRLPRPRPRPDSMPRP | 0.025
RRIRMRPPRLPRPRPRPDSNPRP | 0.754
RRIRMRPPRLPRPRPRPDVCPRP | 0.0762
RRIRMRPPRLPRPRPRPDVRPRP | 0.111
RRIRMRPPRLPRPRPRPDWAPRP | 0.469
RRIRMRPPRLPRPRPRPDWFPRP | 0.235
RRIRMRPPRLPRPRPRPDWGPRP | 0.0473
RRIRMRPPRLPRPRPRPDWVPRP | 0.0143
RRIRMRPPRLPRPRPRPDYWPRP | 0.441
RRIRMRPPRLPRPRPRPEAMPRP | 0.204
RRIRMRPPRLPRPRPRPEAQPRP | 3.76
RRIRMRPPRLPRPRPRPECDPRP | 2.82
RRIRMRPPRLPRPRPRPECRPRP | 2.38
RRIRMRPPRLPRPRPRPEDGPRP | 2.85
RRIRMRPPRLPRPRPRPEFEPRP | -0.0141
RRIRMRPPRLPRPRPRPEFPPRP | 0.745
RRIRMRPPRLPRPRPRPEFVPRP | 0.383

Sequence | shrunken log2 fold change
RRIRMRPPRLPRPRPRPEGNPRP | 0.182
RRIRMRPPRLPRPRPRPEGQPRP | -0.00185
RRIRMRPPRLPRPRPRPEITPRP | 3.07
RRIRMRPPRLPRPRPRPEKCPRP | -0.0105
RRIRMRPPRLPRPRPRPEKNPRP | 2.16
RRIRMRPPRLPRPRPRPEKTPRP | -0.0246
RRIRMRPPRLPRPRPRPELEPRP | 4.13
RRIRMRPPRLPRPRPRPELIPRP | 3.16
RRIRMRPPRLPRPRPRPEMQPRP | 2.83
RRIRMRPPRLPRPRPRPENNPRP | 1.53
RRIRMRPPRLPRPRPRPEPVPRP | 1.01
RRIRMRPPRLPRPRPRPEQCPRP | -0.00138
RRIRMRPPRLPRPRPRPEQSPRP | 3.19
RRIRMRPPRLPRPRPRPEQTPRP | 0.057
RRIRMRPPRLPRPRPRPERQPRP | 2.84
RRIRMRPPRLPRPRPRPERWPRP | 1.5
RRIRMRPPRLPRPRPRPESPPRP | 2.01
RRIRMRPPRLPRPRPRPETFPRP | 0.211
RRIRMRPPRLPRPRPRPETPPRP | 3.09
RRIRMRPPRLPRPRPRPEVAPRP | 3.75
RRIRMRPPRLPRPRPRPEVDPRP | 0.784
RRIRMRPPRLPRPRPRPEWYPRP | 0.0183
RRIRMRPPRLPRPRPRPEYCPRP | 0.0929
RRIRMRPPRLPRPRPRPEYNPRP | 0.25
RRIRMRPPRLPRPRPRPFCRPRP | 0.315

Sequence | shrunken log2 fold change
RRIRMRPPRLPRPRPRPFDRPRP | 0.00911
RRIRMRPPRLPRPRPRPFFAPRP | 0.445
RRIRMRPPRLPRPRPRPFFPPRP | -1.89e-05
RRIRMRPPRLPRPRPRPFGDPRP | 0.0178
RRIRMRPPRLPRPRPRPFHNPRP | -0.00804
RRIRMRPPRLPRPRPRPFKFPRP | -0.012
RRIRMRPPRLPRPRPRPFKIPRP | -0.0716
RRIRMRPPRLPRPRPRPFKKPRP | 0.0258
RRIRMRPPRLPRPRPRPFMCPRP | -0.171
RRIRMRPPRLPRPRPRPFQAPRP | 0.242
RRIRMRPPRLPRPRPRPFTEPRP | 0.0426
RRIRMRPPRLPRPRPRPFVDPRP | -0.338
RRIRMRPPRLPRPRPRPFVIPRP | -0.197
RRIRMRPPRLPRPRPRPFVQPRP | -0.216
RRIRMRPPRLPRPRPRPFWWPRP | 0.158
RRIRMRPPRLPRPRPRPFYEPRP | 0.027
RRIRMRPPRLPRPRPRPGAWPRP | 0.122
RRIRMRPPRLPRPRPRPGDCPRP | 0.548
RRIRMRPPRLPRPRPRPGDGPRP | 0.864
RRIRMRPPRLPRPRPRPGEGPRP | 1.23
RRIRMRPPRLPRPRPRPGFQPRP | 0.151
RRIRMRPPRLPRPRPRPGFVPRP | 0.449
RRIRMRPPRLPRPRPRPGGRPRP | 1.04
RRIRMRPPRLPRPRPRPGGYPRP | 0.0413
RRIRMRPPRLPRPRPRPGHWPRP | 0.263

Sequence | shrunken log2 fold change
RRIRMRPPRLPRPRPRPGKLPRP | 0.515
RRIRMRPPRLPRPRPRPGKTPRP | 0.769
RRIRMRPPRLPRPRPRPGLLPRP | 0.251
RRIRMRPPRLPRPRPRPGMHPRP | 0.186
RRIRMRPPRLPRPRPRPGMKPRP | 0.282
RRIRMRPPRLPRPRPRPGNTPRP | -0.246
RRIRMRPPRLPRPRPRPGPEPRP | 0.797
RRIRMRPPRLPRPRPRPGPKPRP | 1.81
RRIRMRPPRLPRPRPRPGQHPRP | 0.406
RRIRMRPPRLPRPRPRPGQRPRP | 1.08
RRIRMRPPRLPRPRPRPGRSPRP | 0.303
RRIRMRPPRLPRPRPRPGSIPRP | 0.239
RRIRMRPPRLPRPRPRPGSQPRP | 0.926
RRIRMRPPRLPRPRPRPGTIPRP | 0.228
RRIRMRPPRLPRPRPRPGWKPRP | 0.0184
RRIRMRPPRLPRPRPRPGYFPRP | 0.0909
RRIRMRPPRLPRPRPRPGYNPRP | -0.282
RRIRMRPPRLPRPRPRPHAVPRP | 0.353
RRIRMRPPRLPRPRPRPHDEPRP | -0.0018
RRIRMRPPRLPRPRPRPHFWPRP | 0.774
RRIRMRPPRLPRPRPRPHGHPRP | 0.256
RRIRMRPPRLPRPRPRPHGSPRP | 0.0248
RRIRMRPPRLPRPRPRPHLDPRP | 0.108
RRIRMRPPRLPRPRPRPHLKPRP | 0.253
RRIRMRPPRLPRPRPRPHLRPRP | 0.0326

Sequence | shrunken log2 fold change
RRIRMRPPRLPRPRPRPHMFPRP | -0.222
RRIRMRPPRLPRPRPRPHNLPRP | -0.0351
RRIRMRPPRLPRPRPRPHPPPRP | 1.26
RRIRMRPPRLPRPRPRPHPWPRP | 0.227
RRIRMRPPRLPRPRPRPHQSPRP | -0.318
RRIRMRPPRLPRPRPRPHRFPRP | -0.0727
RRIRMRPPRLPRPRPRPHRHPRP | -0.344
RRIRMRPPRLPRPRPRPHRPPRP | 0.066
RRIRMRPPRLPRPRPRPHRVPRP | -0.0492
RRIRMRPPRLPRPRPRPHTTPRP | -0.0908
RRIRMRPPRLPRPRPRPHVRPRP | 0.231
RRIRMRPPRLPRPRPRPHWLPRP | -0.183
RRIRMRPPRLPRPRPRPIFTPRP | -0.0423
RRIRMRPPRLPRPRPRPIGAPRP | 0.739
RRIRMRPPRLPRPRPRPIGNPRP | 0.13
RRIRMRPPRLPRPRPRPIGVPRP | 0.0547
RRIRMRPPRLPRPRPRPIHKPRP | 0.0536
RRIRMRPPRLPRPRPRPIIMPRP | -0.46
RRIRMRPPRLPRPRPRPIKGPRP | -0.0612
RRIRMRPPRLPRPRPRPIKIPRP | -0.0554
RRIRMRPPRLPRPRPRPIKKPRP | 0.0441
RRIRMRPPRLPRPRPRPIMAPRP | -0.0196
RRIRMRPPRLPRPRPRPIPIPRP | 0.138
RRIRMRPPRLPRPRPRPIPRPRP | 0.634
RRIRMRPPRLPRPRPRPIRNPRP | 0.00101
